Test results taken from US20260176374A1 (published 2026).

How the values were obtained:
Assay in all cases: BLI
[1] = biological target: 14949
[2] = biological target: 19429
[3] = biological target: 19113

Kd [1]: 2 nM
Kd [2]: 0.8 nM
Kd [3]: 2 nM
B1: hEPOR (receptor)
chain: APPPNLPDPKFESKAALLAARGPEELLCFTERLEDLVCFWEEAASAGVGPGNYSFSYQLEDEPWKLCRLHQAPTARGAVRFWCSLPTADTSSFVPLELRVTAASGAPRYHRVIHINEVVLLDAPVGLVARLADESGHVVLRWLPPPETPMTSHIRYEVDVSAGNGAGSVQRVEILEGRTECVLSNLRGRTRYTFAVRARMAEPSFGGFWSAWSEPVSLLTPSDLDP
